The values that follow come from patent US11261449B2, “Anti-cancer RNA aptamers” (CITY OF HOPE, priority 2015, dated 2022).

Data set [1] has as its system pancreatic cell lines PANC-1, AsPC-1, MIA PaCa and Capan-1. Put plainly: Live cell confocal internalization in pancreatic cancer cell lines. The class given is cell-based, human. As to conditions: Cy3-labeled RNA 100 nM. On the procedure:
(§1) For the internalization, the cells were grown in 35 mm glass bottom dishes (MatTek, Ashland, Mass., USA) with seeding at 1×10^5 cells in medium for 24 hrs. The RNAs were labeled with Cy3 using the Cy3 Silencer siRNA labeling kit (Ambion, Tex., USA.). Cy3-labeled RNAs at 100 nM were added to the cells and incubated for 1 hour. The images were taken using a Zeiss LSM 510 Meta Inverted 2 photon confocal microscope system using a C-Apo 40×/1.2 NA Water immersion objective.

The subject of a further data set is Panc-1. Briefly: Binding to Panc-1 cells by flow cytometry with Cy3-labeled aptamers (KD). As to conditions: Cy3 labeled aptamers 15.6-500 nM, MFI, one site binding non-linear regression; read-out: binding affinity (Kd). Further details: species or system human. On the procedure:
Aptamer binding and uptake was also assessed by flow cytometry. For the assay, cells were detached using a non-enzymatic cell dissociation solution, washed with PBS and suspended in binding buffer. Next, Cy3-labeled aptamers were added and incubated for 1 hours at 37° C. The binding of individual aptamers for the starting pool as a control to pancreatic cancer cells was performed in triplicate. Flow cytometry was performed on a Cyan (Beckman Coulter counter) and Fortessa. The data were analyzed with FlowJo software.
To determine the binding affinity of aptamers to Panc-1, the median fluorescence intensity (MFI) of each concentrations was determined and subtracted the mean fluorescence background of controls from the corresponding MFI of aptamers described by Sefah et al^53. The dissociation constants were calculated using one site binding non-linear curve regression with a Graph Pad Prism (GraphPad Software, La Jolla, Calif., USA).
(Flow cytometry measures light scatter and fluorescence of single cells or particles in a stream.)

The subject of data set [2] is Non pancreatic lines including Huh7, HepG2, MCF7 and PC3 cells. Put plainly: Confocal internalization / cell binding in non pancreatic cancer lines. The class given is cell-based. As to conditions: Cy3-labeled RNA, liver, breast and prostate cancer lines. On the procedure:
as §1

The test system of the next data set is pancreatic cancer. As to conditions: cited from earlier work.
Another data set has as its system Panc-1 cells. Put plainly: Competition of Cy3 labeled P19 with unlabeled clones, confocal. Format: binding, human. As to conditions: 200 nM Cy3 labeled P19, 1 μM unlabeled clone. On the procedure: For competition assays, 200 nM of Cy3 labeled P19 aptamer was used to compete with either unlabeled clones (1 μM). The fluorescence intensity was quantified in the presence of increasing amounts of competitors using confocal microscopy and analyzed statistically. One-way ANOVA was used for statistical significant analysis (P<0.05).

For data set [3], the system named is normal tissues such as liver, spleen, and kidney; T and B cells. Put plainly: Staining of other normal tissues and T and B cells. Also noted: species or system human. As to conditions: Cy3 labeled aptamer. The method, then: FIG. 2A-2B. Histology (FIG. 2A) The representative images by histopathological screen in normal tissues. The samples were stained with Cy3 labeled aptamer P1 and P19 respectively. The sample sections were then examined under microscope at 100× magnification. Cy3-labeled RNA. (FIG. 2B) Flow cytometry analysis of P19 and P1 in T and B cells. Cy3-labeled RNAs were tested for binding to T and B cell isolated from human blood.

The subject of data set [4] is gemcitabine-resistant ASPC-1 engrafted mice. Briefly: Gemcitabine resistant AsPC-1 tumor in NOD/SCID mice. The class given is in vivo. The conditions noted are these: tail vein, 4 injections at days 1, 3, 5, 7, sacrificed day 9. On the procedure: For gemcitabine resistant tumour test, twelve 5-weeks-old female NOD/SCID mice were injected subcutaneously (S.C.) on the flank with 2.8×10^6 AsPC-1 pancreatic cancer cells in 0.05 ml PBS with 0.15 ml matrigel. After 3 weeks, mice were divided into four groups. One group served as untreated controls and the others injected with P1 (10 ug per injection), P19 (10 ug per injection) and P1 combined with P19 (5 ug of P1 with 5 ug of P19 per injection). Aptamer were injected through tail vein. Animals were injected 4 times at days 1, 3, 5, and 7, and were sacrificed at day 9.
To test chemoresistant tumor regression in mice, twelve 5-weeks-old female NOD/SCID mice were injected subcutaneously (S.C.) on the flank with 2.8×10^6 ASPC-1 gemcitabine resistant pancreatic cancer cells in 0.05 ml PBS with 0.15 ml matrigel. After 3 weeks, mice were divided into four groups. One group served as untreated controls and the others injected with P1, P19 and P1 combined with P19. Aptamer were injected through tail vein. Animals were injected 4 times at days 1, 3, 5, and 7, and were sacrificed at day 9.

In data set [5] the target is T1, mortalin (mitochondrial Hsp70) (Homo sapiens, UniProt P38646). Put plainly: Gel shift assay. Format: binding. As to conditions: native PAGE. The source says: (§2) P1 and P19 were labeled with biotin at the 3′ end. Target membrane proteins were isolated following procedures described by Daniels et al^26 or extracted by ProteoExtract Native Membrane protein Extraction Kit (Calbiochem). Agilent 6520 Q-TOF mass spectrometer used to identify aptamer retrieved proteins. A BIAcore T100 (GE Healthcare, Uppsala, Sweden) was used to measure binding by surface plasmon resonance (SPR) technique. BIAevaluation software (GE Healthcare) was used for analysis. Gel shift assay was also performed to validate the target ligand binding.
Background: In EMSA bound probe runs differently from free probe, usually more slowly.

The target in data set [6] is T1, mortalin (mitochondrial Hsp70). Put plainly: Surface plasmon resonance (BIAcore T100). The class given is binding. The conditions noted are these: aptamer biotin-labeled at 3′ end immobilized on SA chip.
Text: as §2
A general note: SPR reads the build-up and loss of mass on a sensor chip optically.

The target in another data set is T2, cell membrane proteins (Homo sapiens, UniProt P38646).
T2 construct: cell membrane proteins were retrieved by biotinylated aptamers; endogenous in cells
Put plainly: Retrieval of cell membrane proteins by biotinylated aptamers and MASS-SPEC. The conditions noted are these: peptide matching fingerprinting.
Text: as §2

The subject of data set [7] is human pancreatic cancer and normal pancreas tissue specimens. Put plainly: Histopathology staining with Cy3 labeled aptamers, aptamer score. As to conditions: for No. of Patients, Low (<7) staining / No. of Patients, Medium (>7 and <14) staining / No. of Patients, High (>14 and <20) staining: 72 patient samples; for No. of Patients, Low (<7) staining: aptamer score <7; for No. of Patients, Medium (>7 and <14) staining: aptamer score >7 and <14; for No. of Patients, High (>14 and <20) staining: aptamer score >14 and <20; for recognition of pancreatic cancer versus normal pancreas tissues: Cy3 labeled aptamer, histopathology; for Survival Period, High (>14 and <20) staining group / Survival Period, Low (<7) staining group / Survival Period, Medium (>7 and <14) staining group: Table 5, Mean ± SD. On the procedure: The samples were stained by aptamer P1 and P19 respectively. We linked P1 and P19 with Cy3 as marker and DAPI stating was performed for cell nuclei as background. The sample sections were then examined under microscope at 100× magnification, and the aptamer content in each slide of pancreatic cancer was determined by measuring the average of positive-stained particle numbers in five independent fields randomly.
A total of 72 patients (45 male and 27 female) of pancreatic adenocarcinoma had undergone surgical intervention between January 2008 and December 2010 in National Taiwan University Hospital. Diagnosis was settled by pathologic analysis of specimen. All of the enrolled patients fulfilled the informed consent to receive the procedure, and this study was Institutional Review Board approved of NTUH.

Broadly, the Kd is the concentration at which binding is half-saturated.

T1 sequence (P38646 47-679): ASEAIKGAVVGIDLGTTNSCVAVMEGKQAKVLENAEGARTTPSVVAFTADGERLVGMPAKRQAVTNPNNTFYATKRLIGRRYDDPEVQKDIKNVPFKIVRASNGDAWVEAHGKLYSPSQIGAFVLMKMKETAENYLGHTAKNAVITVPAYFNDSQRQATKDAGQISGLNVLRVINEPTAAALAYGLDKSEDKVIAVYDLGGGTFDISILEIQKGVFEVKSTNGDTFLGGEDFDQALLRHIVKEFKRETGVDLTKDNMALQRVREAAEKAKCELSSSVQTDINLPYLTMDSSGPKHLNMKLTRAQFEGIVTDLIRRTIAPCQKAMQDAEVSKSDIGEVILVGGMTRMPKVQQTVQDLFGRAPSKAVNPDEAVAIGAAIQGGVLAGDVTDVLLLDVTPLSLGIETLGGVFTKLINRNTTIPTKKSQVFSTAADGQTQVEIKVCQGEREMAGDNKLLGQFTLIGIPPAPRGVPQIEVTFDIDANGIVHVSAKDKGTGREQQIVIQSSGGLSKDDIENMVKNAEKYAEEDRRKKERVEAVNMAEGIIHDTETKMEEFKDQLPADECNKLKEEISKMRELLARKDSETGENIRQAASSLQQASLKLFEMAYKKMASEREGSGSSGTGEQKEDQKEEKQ
T2 sequence (P38646 47-679): as above

On to “truncated P19: P19 truncated to 28mer including the common motif GAAUGCCC, SEQ ID NO:1 (CUCAAUGGCGAAUGCCCGCCUAAUAGGG; listed as RNA, chemistry not fully specified)”, for which the “internalization in pancreatic cancer cells” value in data set [1] is “internalized into Panc-1 and AsPC-1 cells”. In addition, the Kd in the data set with Panc-1 amounted to 8.77 nM. For the same molecule, in [2], the “internalization / binding in non pancreatic cancer lines” value is listed as “negative reaction”.

With `C#Cc1cccc(Nc2ncnc3cc(OCCOC)c(OCCOC)cc23)c1` [erlotinib], the “median added to overall survival” value in the data set on pancreatic cancer (addition of erlotinib, randomized study) was 11 days. The survival benefit result in the data set on pancreatic cancer (phase III trial of erlotinib with gemcitabine, advanced disease) is listed as “marginal survival benefit”.

B1: P19: 2′F RNA aptamer selected by whole cell SELEX on Panc-1, SEQ ID NO:2 (nucleic acid)
chain: GGGAGACAAGAAUAAACGCUCAAUGGCGAAUGCCCGCCUAAUAGGGCGUUAUGACUUGUUGAGUUCGACAGGAGGCUCACAACAGGC
modifications: all phosphodiester, sugars by position and methylation of C not given here; 2'-fluoro modified RNA
On to B1, for which, in data set [1], the “internalization in pancreatic cancer cells” value is listed as “punctate regions of Cy3 labeling”. For the same molecule, in the data set on Panc-1 cells, the “fluorescence intensity of labeled P19 in presence of unlabeled competitor” value was “significantly decreased”. Also, in data set [3], the “staining of other normal tissues including T and B cells” value was “negative staining”. For the same molecule, the “anti-tumor effect of aptamers only (tumor size)” value in data set [4] is “anti-tumor effects in gemcitabine resistance tumour cells significantly”. Moreover, the Kd in the data set on Panc-1 came to 13.1 nM. In addition, the “internalization / binding in non pancreatic cancer lines” value in data set [2] is given as “No Cy3 signal was observed”. Also, the gel shift entry in data set [5] is recorded as “shifted band was observed”. For the same molecule, the “binding by SPR” value in data set [6] was “bound to the mortalin”. For the same molecule, the target ligand identified entry with cell membrane proteins is listed as “mitochondrial Hsp70 which is mortalin”. In addition, in [7], the “No. of Patients, Low (<7) staining” value amounted to 3; the “No. of Patients, Medium (>7 and <14) staining” value was found to be 26; the “No. of Patients, High (>14 and <20) staining” value is 43; the “recognition of pancreatic cancer versus normal pancreas tissues” value is “recognized pancreatic cancer tissues specifically, not normal pancreas tissues”. For the same molecule, in data set [7], the “Survival Period, High (>14 and <20) staining group” value is reported as 13.0 ± 4.29; the “Survival Period, Low (<7) staining group” value is 21.0 ± 2.64; the “Survival Period, Medium (>7 and <14) staining group” value was 15.6 ± 3.30.

B2: P1: 2′F RNA aptamer selected by whole cell SELEX on Panc-1, SEQ ID NO:4 (nucleic acid)
chain: GGGAGACAAGAAUAAACGCUCAAUGCGCUGAAUGCCCAGCCGUGAAAGCGUCGAUUUCCAUCCUUCGACAGGAGGCUCACAACAGGC
modifications: all phosphodiester, sugars by position and methylation of C not given here; 2'-fluoro modified RNA
In the case of B2, the “internalization in pancreatic cancer cells” value in data set [1] is “punctate regions of Cy3 labeling”. The “staining of other normal tissues including T and B cells” value in data set [3] is on record as “negative staining”. Moreover, the “anti-tumor effect of aptamers only (tumor size)” value in data set [4] was “anti-tumor effects in gemcitabine resistance tumour cells significantly”. Besides, the equilibrium dissociation constant (Kd) in the data set with Panc-1 worked out at 2.2 nM. The “internalization / binding in non pancreatic cancer lines” value in data set [2] is reported as “No Cy3 signal was observed”. Moreover, in data set [5], the gel shift entry is listed as “shifted band was observed”. For the same molecule, the “binding by SPR” value in data set [6] was “bound to the mortalin”. In addition, the target ligand identified entry in the data set with cell membrane proteins is given as “mitochondrial Hsp70 which is mortalin”. For the same molecule, in data set [7], the “survival period, medium level group” value was 15.9±3.17 months; the “No. of Patients, Low (<7) staining” value is reported as 3; the “No. of Patients, Medium (>7 and <14) staining” value turned out to be 26; the “No. of Patients, High (>14 and <20) staining” value is 43. In addition, in [7], the “recognition of pancreatic cancer versus normal pancreas tissues” value was “recognized pancreatic cancer tissues specifically, not normal pancreas tissues”; the “Survival Period, High (>14 and <20) staining group” value came out at 13.1 ± 4.36; the “Survival Period, Low (<7) staining group” value turned out to be 21.0 ± 2.64; the “Survival Period, Medium (>7 and <14) staining group” value is 15.9 ± 3.17.
